According to US20170101472A1 (Regeneron, published 2017):
Substitutions are numbered along the chain they refer to. Names and notes keep the numbering of the source. Values belong to the binder of their own block, whether it stands above or below them.

Columns and labels:
[1] = target: T1, monkey LAG3 (mfLAG3) expressed on HEK293 cells (cynomolgus monkey, UniProt P18627 24-525 (human entry)); assay: flow cytometry, HEK293/mfLAG3 cells
T1 construct: also called HEK293/mfLAG3; HEK293-mfLAG3
T1 chain: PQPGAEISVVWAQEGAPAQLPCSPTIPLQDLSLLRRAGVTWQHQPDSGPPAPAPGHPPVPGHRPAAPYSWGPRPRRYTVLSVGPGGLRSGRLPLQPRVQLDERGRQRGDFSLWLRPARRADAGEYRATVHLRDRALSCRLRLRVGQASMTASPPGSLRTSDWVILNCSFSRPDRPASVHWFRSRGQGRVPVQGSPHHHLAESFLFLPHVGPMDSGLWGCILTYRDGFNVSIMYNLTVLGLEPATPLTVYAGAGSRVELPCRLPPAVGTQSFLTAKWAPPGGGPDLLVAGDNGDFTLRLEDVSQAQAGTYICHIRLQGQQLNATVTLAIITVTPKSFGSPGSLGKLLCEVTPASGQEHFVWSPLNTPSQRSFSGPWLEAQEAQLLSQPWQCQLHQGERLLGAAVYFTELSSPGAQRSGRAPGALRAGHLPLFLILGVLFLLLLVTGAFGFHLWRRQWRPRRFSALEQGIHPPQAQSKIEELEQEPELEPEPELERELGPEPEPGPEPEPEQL
Experimental: (§1) The serially diluted antibodies were added to the cell suspension and incubated for 15-30 minutes on ice. The cells were centrifuged and pellets were washed with staining buffer to remove unbound antibodies. […] The cells were centrifuged and pellets were washed with staining buffer to remove unbound secondary F(ab′)2 and fixed overnight with a 1:1 dilution of Cytofix (BD Biosciences, #554655) and staining buffer. Following day, fixed cells were centrifuged and pellets were washed with staining buffer, resuspended and filtered. Fluorescence measurements were acquired on HyperCyt® cytometer and analyzed in ForeCyt™ (IntelliCyt; Albuquerque, N. Mex.) to determine the mean fluorescence intensities (MFI). The EC₅₀ values were calculated from a four-parameter logistic equation over an 11-point response curve using GraphPad Prism. EC₅₀ was defined as the concentration of antibody at which 50% of maximal binding signal is detected. The MFI ratio for each antibody was calculated by dividing the MFI at 100 nM by MFI at 0 nM of antibody concentration.

[2] = target: T1, monkey LAG3 (mfLAG3) expressed on …; assay: electrochemiluminescence cell binding
Experimental: (§2) To investigate the ability of a panel of anti-LAG3 monoclonal antibodies to bind cell-surface expressed LAG3, an in vitro binding assay utilizing human and monkey LAG3 expressing cell lines in an electrochemiluminescence based detection platform [Meso Scale Diagnostics, Rockville, Md.—(MSD)] was developed.
(§3) Experiments were carried out according to following procedure. Cells from the three cell lines described above were rinsed once in 1×PBS buffer without Ca²⁺/Mg²⁺ followed by 10-minute incubation at 37° C. with Enzyme Free Cell Dissociation Solution. […] Approximately 10,000 cells per well in the cell-washing buffer were seeded into the 96-well carbon electrode plates (MULTI-ARRAY high bind plate, MSD) and incubated for 1 hour at 37° C. to allow the cells to adhere. Nonspecific binding sites were blocked by 2% BSA (w/v) in PBS for 1 hour at room temperature. […] The plates were then washed to remove the unbound antibodies using an AquaMax2000 plate washer (MDS Analytical Technologies). The plate-bound antibodies were detected with a SULFO-TAG™-conjugated anti-human IgG antibody (MSD) for 1 hour at room temperature. After washes, the plates were developed with the Read Buffer (MSD) according to manufacturer's recommended procedure and the luminescent signals were recorded with a SECTOR Imager 6000 (MSD) instrument. The direct binding signals (in relative light units—RLU) were analyzed as a function of the antibody concentration and the data were fitted with a sigmoidal (four-parameter logistic) dose-response model using Graph Pad Prism™ software. The potency of each antibody was determined by calculating EC₅₀.

[3] = target: T1, monkey LAG3 (mfLAG3) expressed on …; assay: electrochemiluminescence cell binding, HEK293-mfLAG3
Experimental: as §2, §3

[4] = target: T1, monkey LAG3 (mfLAG3) expressed on …; assay: flow cytometry, HEK293/mfLAG3 cells; FACS on HEK293/mfLAG3 cells; MFI ratio 100 nM/0 nM
Experimental: as §1

[5] = target: T1, monkey LAG3 (mfLAG3) expressed on …; assay: flow cytometry, HEK293/mfLAG3 cells; FACS on HEK293/mfLAG3 cells
Experimental: as §1

- EC50 [1]: 1.35 nM
- Ratio of MFI (100 nM/0 nM) [1]: 21.5
- Ratio of 100 nM antibody binding HEK293-mfLAG3 to HEK293 cells [2]: 2.1
- EC50 [3]: 73.9 nM
B1: H4H15479P (antibody, human IgG4, V domains shown)
VH: QVQLQQWGAGLLNPSETLSLTCAVYGGAFSDYYWNWIRQPPGKGLEWIGEINHRGSTNYNPSLKSRVTISVDTSKNQFSLRMSSVTAADAAVYYCARGEDYDIWNGYYQEKWGQGTLVTVSS
VL: EIVLTQSPATLSLSPGERATLSCRASQSISTYLAWYQQKPGQAPRLLIYDASKRATGIPARFSGSGSGTDFTLTISSLEPEDFVVYYCHQRSNWPLTFGGGTKVEIK

- Ratio of MFI (100 nM/0 nM) [4]: 17.1
- EC50 [5]: 1.42 nM
B2: H4H14813N (antibody, human IgG4, V domains shown)
VH: QVQLQQWGAGLLKPSETLSLTCAVYGGSFSGYYWNWIRQPPGKGLEWVGEISHRGSTNYNPSLKSRVTISLDTSKNQFSLKLTSVTAADTAVYYCSRDEELEFRFFDYWGQGTLVTVSS
VL: B1 VL with I29V, T31S, I48V, D50G, K53N, V84A, V85F, H89Q
notes: H4H = human IgG4 Fc with S108P hinge mutation

- Ratio of MFI (100 nM/0 nM) [4]: 20.7
- EC50 [5]: 0.902 nM
B3: H4sH15479P (antibody, V domains shown)
VH: B1 VH
VL: B1 VL

- EC50 [1]: > 10 nM
- Ratio of MFI (100 nM/0 nM) [1]: 8.8
B4: H4H15483P (antibody, human IgG4, V domains shown)
VH: QVQLQQWGAGLLPPSETLSLICAVYGGSFSGYYWSWIRQPPGKGLEWIGEINHRGSTNYNPSLKSRATISVDTSKNQFSLKLSSVTAADTAVYYCSRGEDYYDSSGYSYYFDYWGQGTLVTVSS
VL: B1 VL with I29V, T31S, K53N, V84A, H89Q
notes: as for B2

- EC50 [1]: > 10 nM
- Ratio of MFI (100 nM/0 nM) [1]: 14.3
- Ratio of 100 nM antibody binding HEK293-mfLAG3 to HEK293 cells [2]: 4.7
- EC50 [3]: 7.85 nM
B5: H4H17826P2 (antibody, human IgG4, V domains shown)
VH: EVQLVESGGGLVQPGGSLRLSCAASGFTFSSYEMNWVRQAPGKGLEWVSYISSSGNTKDYAGSVKGRVTISRDNAKNLLYLQMNSLRAEDTAVYHCARDGGHYDILTGSMSYYYYALDVWGQGTTVTVSS
VL: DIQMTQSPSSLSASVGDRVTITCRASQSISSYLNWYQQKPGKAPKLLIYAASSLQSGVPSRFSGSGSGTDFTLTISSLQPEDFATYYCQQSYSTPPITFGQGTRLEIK
notes: as for B2

- EC50 [1]: > 10 nM
- Ratio of MFI (100 nM/0 nM) [1]: 12.1
- Ratio of 100 nM antibody binding HEK293-mfLAG3 to HEK293 cells [2]: 8.3
- EC50 [3]: 40.2 nM
B6: H4H17819P (antibody, human IgG4, V domains shown)
VH: EVQLVESGGGLVQPGGSLRLSCVASGFTFSLYAMTWVRQVPGKGLEWVSTISGSGGGTYYTDSVKGRFTISRDNSKNTLYLQMNSLRADDTAVFYCTKESTTGTYSYFYGMDVWGQGTTVTVSS
VL: DIQMTQSPSSLSASVGDRVTITCRASQTISSYLNWYQQKPGKAPKLLIYAASSLQSGVPSRFSGSGSGTDFTLTLSGLQPEDFATYYCQQSYSTPLTFGGGTKVEIK
notes: as for B2

- Ratio of 100 nM antibody binding HEK293-mfLAG3 to HEK293 cells [2]: 6
- EC50 [3]: 13.1 nM
B7: H4H17828P2 (antibody, human IgG4, V domains shown)
VH: EVQLVESGGGLVQPGGSLRLSCAASGFTFKTYAMSWVRQAPGRGLEWVSGISGSGSTSYYADSVKGRFTISRDNYKKTLSLQMNSLRAEDTAVYYCALDIMATVGGLFNNWGQGTLVTVSS
VL: not shown
notes: as for B2

- EC50 [5]: 2.2 nM
B8: H4H15482P (antibody, human IgG4 S228P, kappa)
heavy: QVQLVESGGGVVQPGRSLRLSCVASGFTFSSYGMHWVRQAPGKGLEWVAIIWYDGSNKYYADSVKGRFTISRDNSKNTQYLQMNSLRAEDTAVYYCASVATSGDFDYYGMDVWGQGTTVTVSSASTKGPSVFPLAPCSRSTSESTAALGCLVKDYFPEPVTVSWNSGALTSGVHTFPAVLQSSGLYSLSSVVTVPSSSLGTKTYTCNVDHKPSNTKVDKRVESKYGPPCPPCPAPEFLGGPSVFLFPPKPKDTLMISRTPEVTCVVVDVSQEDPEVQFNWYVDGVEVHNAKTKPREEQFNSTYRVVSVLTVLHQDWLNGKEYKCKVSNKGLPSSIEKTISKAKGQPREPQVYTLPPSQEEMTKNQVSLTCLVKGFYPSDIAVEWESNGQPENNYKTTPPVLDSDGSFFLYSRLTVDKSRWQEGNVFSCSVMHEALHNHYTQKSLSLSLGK
light: EIVLTQSPATLSLSPGERTTLSCRASQRISTYLAWYQQKPGQAPRLLIYDASKRATGIPARFSGSGSGTGFTLTISSLEPEDFAVYYCQQRSNWPLTFGGGTKVEIKRTVAAPSVFIFPPSDEQLKSGTASVVCLLNNFYPREAKVQWKVDNALQSGNSQESVTEQDSKDSTYSLSSTLTLSKADYEKHKVYACEVTHQGLSSPVTKSFNRGEC
notes: H4H = human IgG4 Fc with S108P

- Ratio of MFI (100 nM/0 nM) [1]: 1
- binding result [1]: no binding (tested: 100 nM)
B9: H4sH15462P (antibody, V domains shown)
VH: QVQLVQSGAEVKKPGASVKVSCKASGYTFTNYYIHWVRQAPGQGLDWMGIINPGGGNTNYAQKFLGRVTMTRDTSTTTVYMELSSLRSEDTAIYYCARENWNSYFDNWGQGTLVTVSS
VL: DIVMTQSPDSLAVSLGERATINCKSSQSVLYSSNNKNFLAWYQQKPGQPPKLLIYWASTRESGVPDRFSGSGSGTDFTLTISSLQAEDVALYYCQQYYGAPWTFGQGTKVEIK
notes: H4sH = human IgG4 Fc with 2 or more amino acid changes as disclosed in US20140243504

- Ratio of MFI (100 nM/0 nM) [1]: 2.9
- binding result [1]: no binding (tested: 100 nM)
B10: H4H15462P (antibody, human IgG4, V domains shown)
VH: B9 VH
VL: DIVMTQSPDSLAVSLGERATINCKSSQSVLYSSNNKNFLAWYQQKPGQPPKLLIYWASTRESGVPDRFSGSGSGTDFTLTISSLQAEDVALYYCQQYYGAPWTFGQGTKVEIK
notes: as for B2

- EC50 [1]: > 10 nM
- Ratio of MFI (100 nM/0 nM) [1]: 12.1
- Ratio of 100 nM antibody binding HEK293-mfLAG3 to HEK293 cells [2]: 32.7
- EC50 [3]: 20 nM
B11: H4sH15498P2 (antibody, V domains shown)
VH: EVQLVESGGGLVQPGGSLRLSCAASGFTFTSYAMTWVRQAPGKGLEWVSDISGSGGRTYYADSVKGRFTISRDNSKNMLYLQMNILRAEDTAVYHCAKGTGQQVDLYNYYYALDVWGQGTTVTVSS
VL: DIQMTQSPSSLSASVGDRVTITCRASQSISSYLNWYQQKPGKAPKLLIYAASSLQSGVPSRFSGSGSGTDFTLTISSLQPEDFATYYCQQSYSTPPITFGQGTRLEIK
notes: as for B9

- EC50 [1]: > 10 nM
- Ratio of MFI (100 nM/0 nM) [1]: 12.8
- Ratio of 100 nM antibody binding HEK293-mfLAG3 to HEK293 cells [2]: 13.8
- EC50 [3]: 9.68 nM
B12: H4H15498P2 (antibody, human IgG4, V domains shown)
VH: B11 VH
VL: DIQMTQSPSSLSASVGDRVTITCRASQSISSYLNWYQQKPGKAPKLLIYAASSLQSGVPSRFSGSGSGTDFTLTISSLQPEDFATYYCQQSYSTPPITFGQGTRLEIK
notes: as for B2
